Literature values as cited in publication PMC5167704.

Target: C4BP SCR6-8 (Homo sapiens) (UniProt P04003)
Sequence of UniProt P04003 (P04003 363-540): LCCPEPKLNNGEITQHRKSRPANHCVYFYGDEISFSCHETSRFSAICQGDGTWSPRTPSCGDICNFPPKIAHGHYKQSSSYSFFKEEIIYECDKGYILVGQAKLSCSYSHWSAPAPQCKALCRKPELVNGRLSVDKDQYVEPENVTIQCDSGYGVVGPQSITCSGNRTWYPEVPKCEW

For Ail (from UniProt Q56957), the Kd is given as 0.76 nM.
